According to patent publication US20240108738A1 (Bicycle, published 2024):
Numbered stars: 1 amine (or outer) side, 2 acyl side, 3 side chain; on linkers, the order of the positions; unused ones are H or OH. Bridge positions count the residues as written; N and C are the ends. Square brackets hold non-standard residues; d marks the D form. Ends that are not written are not given here. * marks the point of attachment. TATA = O=C(CC[*:1])N1CN(C(=O)CC[*:2])CN(C(=O)CC[*:3])C1; Ala(4-thiazolyl) = N[C@@H](Cc1cscn1)C(=O)O; 1Nal = N[C@@H](Cc1cccc2ccccc12)C(=O)O; 2Pal = N[C@@H](Cc1ccccn1)C(=O)O; Cba = N[C@@H](CC1CCC1)C(=O)O; Pent4ynoyl = C#CCCC(=O)*

biological target: T1, Human NKp46 Fc tag (Acro Biosystems, NC1-H5257) (human, UniProt O76036 22-255); experiment: SPR Method 1 and/or 2
T1 construct: bought; also called Fc-tagged human NKp46
T1 sequence (O76036 22-255 limits assumed): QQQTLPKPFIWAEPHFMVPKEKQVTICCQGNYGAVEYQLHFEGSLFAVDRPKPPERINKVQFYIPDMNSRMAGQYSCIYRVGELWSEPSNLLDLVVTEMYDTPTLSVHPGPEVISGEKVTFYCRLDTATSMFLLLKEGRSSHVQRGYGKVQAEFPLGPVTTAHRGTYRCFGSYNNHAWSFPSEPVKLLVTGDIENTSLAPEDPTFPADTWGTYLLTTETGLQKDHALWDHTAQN
Procedure: The SPR analysis was run at 25° C. and a flow rate of 50 μl/min with 60 seconds association and 200-400 seconds dissociation time. Data were corrected for DMSO excluded volume effects. All data were double-referenced for blank injections and reference surface using standard processing procedures and data processing and kinetic fitting were performed using Scrubber software, version 2.0c (BioLogic Software). Data were fitted using simple 1:1 binding model allowing for mass transport effects where appropriate.
For analysis of peptide binding, a Biacore 8k+ instrument was used with a CM5 chip (Cytiva). All experiments were carried out at 25° C. Anti-human IgG (Fc) antibody (Cytiva) was immobilized on all flow cells by standard amine coupling chemistry. The running buffer was HBS-N(Cytiva, 10 mM HEPES, 0.15 M NaCl, pH 7.4) and the flow rate was 10 μL/min. The carboxymethyl dextran surface was activated with a 1:1 ratio of 0.4 M 1-ethyl-3-(3-dimethylaminopropyl) carbodiimide hydrochloride (EDC)/0.1 M N-hydroxy succinimide (NHS) (Cytiva) for 420s. […] Residual activated groups were blocked with a 420 s injection of 1 M ethanolamine (pH 8.5). The final surface density was 3000-5000 RU. Fc-tagged human NKp46 was diluted to 0.1 μM in HBS-N and was captured on flow cell 2 only of the sensor chip at a flow rate of 10 μL/min to 500-1000 RU. The buffer was then changed to PBS-P+(Cytiva) supplemented with 2% DMSO. […] The flow rate was 50 μL/min with 60 s association and 400 s dissociation. Data were corrected for DMSO volume exclusion effects. All data were double-referenced against blank injections and reference surface response using standard processing procedures. Data processing and kinetic fitting was performed using Biacore Insight Evaluation Software with Extended Screening and Characterization Extension (Cytiva). Data were fitted using steady state affinity 1:1 binding model to determine KD. Data were fitted using kinetic 1:1 binding model to determine kinetic constants where appropriate.

Row | Binder | Kd [nM]
1 | ACYLPK(Pent4ynoyl)YLCGDEYCA-NH2 (linker 2-9-14 via TATA; N-terminus assumed; SMILES C#CCCC(=O)NCCCC[C@@H]1NC(=O)[C@@H]2CCCN2C(=O)[C@H](CC(C)C)NC(=O)[C@H](Cc2ccc(O)cc2)NC(=O)[C@@H](NC(=O)[C@H](C)N)CSCCC(=O)N2CN3CN(C2)C(=O)CCSC[C@@H](C(=O)N[C@@H](C)C(N)=O)NC(=O)[C@H](Cc2ccc(O)cc2)NC(=O)[C@H](CCC(=O)O)NC(=O)[C@H](CC(=O)O)NC(=O)CNC(=O)[C@H](CSCCC3=O)NC(=O)[C@H](CC(C)C)NC(=O)[C@H](Cc2ccc(O)cc2)NC1=O, scaffold TATA) [BCY16837] | 42
2 | ACYLPDYLCK(Pent4ynoyl)DEYCA-NH2 (linker 2-9-14 via TATA; N-terminus assumed; SMILES C#CCCC(=O)NCCCC[C@@H]1NC(=O)[C@@H]2CSCCC(=O)N3CN(CN(C3)C(=O)CCSC[C@@H](C(=O)N[C@@H](C)C(N)=O)NC(=O)[C@H](Cc3ccc(O)cc3)NC(=O)[C@H](CCC(=O)O)NC(=O)[C@H](CC(=O)O)NC1=O)C(=O)CCSC[C@H](NC(=O)[C@H](C)N)C(=O)N[C@@H](Cc1ccc(O)cc1)C(=O)N[C@@H](CC(C)C)C(=O)N1CCC[C@H]1C(=O)N[C@@H](CC(=O)O)C(=O)N[C@@H](Cc1ccc(O)cc1)C(=O)N[C@@H](CC(C)C)C(=O)N2, scaffold TATA) [BCY16840] | 60
3 | ACYLPDYLCGDK(Pent4ynoyl)YCA-NH2 (linker 2-9-14 via TATA; N-terminus assumed; SMILES C#CCCC(=O)NCCCC[C@@H]1NC(=O)[C@H](CC(=O)O)NC(=O)CNC(=O)[C@@H]2CSCCC(=O)N3CN(CN(C3)C(=O)CCSC[C@@H](C(=O)N[C@@H](C)C(N)=O)NC(=O)[C@H](Cc3ccc(O)cc3)NC1=O)C(=O)CCSC[C@H](NC(=O)[C@H](C)N)C(=O)N[C@@H](Cc1ccc(O)cc1)C(=O)N[C@@H](CC(C)C)C(=O)N1CCC[C@H]1C(=O)N[C@@H](CC(=O)O)C(=O)N[C@@H](Cc1ccc(O)cc1)C(=O)N[C@@H](CC(C)C)C(=O)N2, scaffold TATA) [BCY16842] | 2470
4 | ACYLPDYLCGDEK(Pent4ynoyl)CA-NH2 (linker 2-9-14 via TATA; N-terminus assumed; SMILES C#CCCC(=O)NCCCC[C@@H]1NC(=O)[C@H](CCC(=O)O)NC(=O)[C@H](CC(=O)O)NC(=O)CNC(=O)[C@@H]2CSCCC(=O)N3CN(CN(C3)C(=O)CCSC[C@@H](C(=O)N[C@@H](C)C(N)=O)NC1=O)C(=O)CCSC[C@H](NC(=O)[C@H](C)N)C(=O)N[C@@H](Cc1ccc(O)cc1)C(=O)N[C@@H](CC(C)C)C(=O)N1CCC[C@H]1C(=O)N[C@@H](CC(=O)O)C(=O)N[C@@H](Cc1ccc(O)cc1)C(=O)N[C@@H](CC(C)C)C(=O)N2, scaffold TATA) [BCY16843] | 3010
5 | ACYLPDYLC[dK](Pent4ynoyl)DEYCA-NH2 (linker 2-9-14 via TATA; N-terminus assumed; SMILES C#CCCC(=O)NCCCC[C@H]1NC(=O)[C@@H]2CSCCC(=O)N3CN(CN(C3)C(=O)CCSC[C@@H](C(=O)N[C@@H](C)C(N)=O)NC(=O)[C@H](Cc3ccc(O)cc3)NC(=O)[C@H](CCC(=O)O)NC(=O)[C@H](CC(=O)O)NC1=O)C(=O)CCSC[C@H](NC(=O)[C@H](C)N)C(=O)N[C@@H](Cc1ccc(O)cc1)C(=O)N[C@@H](CC(C)C)C(=O)N1CCC[C@H]1C(=O)N[C@@H](CC(=O)O)C(=O)N[C@@H](Cc1ccc(O)cc1)C(=O)N[C@@H](CC(C)C)C(=O)N2, scaffold TATA) [BCY17662] | 8.1
6 | ACNLQNPCMKFPCAK(Pent4ynoyl)-NH2 (linker 2-8-13 via TATA (inferred), scaffold TATA) [BCY18004] | 414
7 | ACLLHDHCPNTHPKLCAK(Pent4ynoyl)-NH2 (linker 2-8-16 via TATA (inferred), scaffold TATA) [BCY18005] | 729
8 | Ac-CDLTTHNCQWGIC-NH2 (linker 1-8-13 via TATA, scaffold TATA) [BCY18260] | 1240
9 | Ac-ACDLTTHNCQWGICA-NH2 (linker 2-9-14 via TATA, scaffold TATA) [BCY18261] | 543
10 | ACDLTTHNCQWGICA-NH2 (linker 2-9-14 via TATA; also: scaffold TATA, TATB or TBMT, scaffold TATA) [BCY15107] | 396
11 | ACNLTTHNCQWGICA-NH2 (linker 2-9-14 via TATA; also: scaffold TATA, TATB or TBMT, scaffold TATA) [BCY18273] | 326
12 | ACDLTLHNCQWGICA-NH2 (linker 2-9-14 via TATA; also: scaffold TATA, TATB or TBMT, scaffold TATA) [BCY18278] | 335
13 | ACDLTTHNCQW[dA]ICA-NH2 (linker 2-9-14 via TATA; N-terminus assumed; SMILES CC[C@H](C)[C@@H]1NC(=O)[C@@H](C)NC(=O)[C@H](Cc2c[nH]c3ccccc23)NC(=O)[C@H](CCC(N)=O)NC(=O)[C@@H]2CSCCC(=O)N3CN(CN(C3)C(=O)CCSC[C@@H](C(=O)N[C@@H](C)C(N)=O)NC1=O)C(=O)CCSC[C@H](NC(=O)[C@H](C)N)C(=O)N[C@@H](CC(=O)O)C(=O)N[C@@H](CC(C)C)C(=O)N[C@@H]([C@@H](C)O)C(=O)N[C@@H]([C@@H](C)O)C(=O)N[C@@H](Cc1c[nH]cn1)C(=O)N[C@@H](CC(N)=O)C(=O)N2, scaffold TATA) [BCY18292] | 1460
14 | ACDLTT[His3Me]NCQWGICA-NH2 (linker 2-9-14 via TATA; not fully specified, scaffold TATA) [BCY18279] | 599
15 | ACDLTT[2Pal]NCQWGICA-NH2 (linker 2-9-14 via TATA; N-terminus assumed; SMILES CC[C@H](C)[C@@H]1NC(=O)CNC(=O)[C@H](Cc2c[nH]c3ccccc23)NC(=O)[C@H](CCC(N)=O)NC(=O)[C@@H]2CSCCC(=O)N3CN(CN(C3)C(=O)CCSC[C@@H](C(=O)N[C@@H](C)C(N)=O)NC1=O)C(=O)CCSC[C@H](NC(=O)[C@H](C)N)C(=O)N[C@@H](CC(=O)O)C(=O)N[C@@H](CC(C)C)C(=O)N[C@@H]([C@@H](C)O)C(=O)N[C@@H]([C@@H](C)O)C(=O)N[C@@H](Cc1ccccn1)C(=O)N[C@@H](CC(N)=O)C(=O)N2, scaffold TATA) [BCY18280] | 1270
16 | ACDLTT[His1Me]NCQWGICA-NH2 (linker 2-9-14 via TATA; not fully specified, scaffold TATA) [BCY18281] | 424
17 | ACDLTT[Ala(4-thiazolyl)]NCQWGICA-NH2 (linker 2-9-14 via TATA; N-terminus assumed; SMILES CC[C@H](C)[C@@H]1NC(=O)CNC(=O)[C@H](Cc2c[nH]c3ccccc23)NC(=O)[C@H](CCC(N)=O)NC(=O)[C@@H]2CSCCC(=O)N3CN(CN(C3)C(=O)CCSC[C@@H](C(=O)N[C@@H](C)C(N)=O)NC1=O)C(=O)CCSC[C@H](NC(=O)[C@H](C)N)C(=O)N[C@@H](CC(=O)O)C(=O)N[C@@H](CC(C)C)C(=O)N[C@@H]([C@@H](C)O)C(=O)N[C@@H]([C@@H](C)O)C(=O)N[C@@H](Cc1cscn1)C(=O)N[C@@H](CC(N)=O)C(=O)N2, scaffold TATA) [BCY18282] | 661
18 | ACDLTTHNC[Cba]WGICA-NH2 (linker 2-9-14 via TATA, scaffold TATA) [BCY18286] | 1230
19 | ACDLTTHNCQ[1Nal]GICA-NH2 (linker 2-9-14 via TATA; N-terminus assumed; SMILES CC[C@H](C)[C@@H]1NC(=O)CNC(=O)[C@H](Cc2cccc3ccccc23)NC(=O)[C@H](CCC(N)=O)NC(=O)[C@@H]2CSCCC(=O)N3CN(CN(C3)C(=O)CCSC[C@@H](C(=O)N[C@@H](C)C(N)=O)NC1=O)C(=O)CCSC[C@H](NC(=O)[C@H](C)N)C(=O)N[C@@H](CC(=O)O)C(=O)N[C@@H](CC(C)C)C(=O)N[C@@H]([C@@H](C)O)C(=O)N[C@@H]([C@@H](C)O)C(=O)N[C@@H](Cc1c[nH]cn1)C(=O)N[C@@H](CC(N)=O)C(=O)N2, scaffold TATA) [BCY18287] | 637
